From PMC4288360

Molecular target: T1, Recombinant mouse BMP-9 (bone morphogenetic protein 9) (mouse) (UniProt Q9WV56)
T1 sequence: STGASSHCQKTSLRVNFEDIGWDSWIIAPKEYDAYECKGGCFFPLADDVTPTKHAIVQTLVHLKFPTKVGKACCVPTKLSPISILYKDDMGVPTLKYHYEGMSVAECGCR

B1: Activin receptor-like kinase-1 fusion protein (ALK1-Fc) (Fc fusion)
chain: DLAKPSKLVNCTCESPHCKRPFCQGSWCTVVLVREQGRHPQVYRGCGSLNQELCLGRPTEFLNHHCCYRSFCNHNVSLMLEATQTPSEEPEVDAHLP
Which inhibition of BMP-9 (50 ng/ml)-induced alkaline phosphatase activity in murine VSMCs by ALK1-Fc (250 ng/ml and 1 μg/ml; value at 1 μg/ml), 4 days; blocks BMP-9 acting on ALK1 of the cells does the source give for B1 here?
The inhibition of BMP-9 (50 ng/ml)-induced alkaline phosphatase activity in murine VSMCs by ALK1-Fc (250 ng/ml and 1 μg/ml; value at 1 μg/ml), 4 days; blocks BMP-9 acting on ALK1 of the cells was 33%.
